Target: the molecule itself
Test: SEC-SAXS; inline SEC (5 x 150 mm Superdex S200, 0.45 ml/min) with SAXS at the Australian Synchrotron SAXS/WAXS beamline, sheath-flow cell; 25 mM MOPS, 250 mM NaCl, 50 mM KCl, 2 mM TCEP, 0.1% NaN3 pH 7.5; 22 °C; mass from I(0), Porod volume and fit of crystal structures

B1: glucose isomerase (enzyme)
chain: not shown
notes: glucose isomerase (xylose isomerase), Streptomyces rubiginosus, UniProt P24300 residues 2-388; Tetramer; M from chemical composition 172912 Da for the tetramer; also called GI; GI (tetramer); source: bought: Hampton Research (HR7-100); stored in diluted form, repeated freeze-thaw cycles; no purification step before the SEC-SAXS column
- stoichiometry N: 4

Reference: PMC5586245, “2017 publication guidelines for structural modelling of small-angle scattering data from biomolecules in solution: an update” (Acta Crystallographica. Section D, Structural Biology, 2017)
